From publication PMC5593927, “Overlapping and Specific Functions of the Hsp104 N Domain Define Its Role in Protein Disaggregation” (Scientific Reports, 2017)
Where no end group is shown, it is not given here. The star is where a group is joined. Biotin = O=C1N[C@H]2[C@H](CS[C@H]2CCCCC(=O)*)N1; Ahx = NCCCCCC(=O)O

Experiments:
[1] = target: T1, Hsp104N, isolated N domain of S. cerevisiae Hsp104 (first 165 residues) (S. cerevisiae, UniProt P31539 1-165); assay: BLI; Octet RED96; biotinylated C1 peptide immobilised on streptavidin biosensors at 0.5 µM; Hsp104N 4.3 to 137 µM in solution; 50 mM Tris-HCl pH 8.5, 20 mM ammonium citrate, 10% PEG4000, 0.1 mg/ml BSA; 25 °C; 10 min association, 10 min dissociation; equilibrium shifts from two independent measurements; details: both partners purified
T1 construct: Hsp104, S. cerevisiae, isolated N domain consisting of the first 165 residues, cloned into pProEX HTb; Tag cleavage by TEV is told in the general purification paragraph, not for Hsp104N by name; also called His6-Hsp104N; source: E. coli BL21-CodonPlus (DE3)-RIL, purified (Ni-NTA, anion exchange); not shown: His6, N-terminal, cleaved

[2] = target: the molecule itself; assay: crystal structure; Hsp104ND1 crystals grown at 4 °C, space group P6_(5)22, one molecule per asymmetric unit, nucleotide-free; N domain of one molecule contacts the C1 helix of the neighboring molecule; 2.8 Å

B1: Biotinylated C1 peptide (Biotin-Ahx-GEVAEPSVRQTVAILRGLQ) (peptide)
peptide: {Biotin-Ahx}-GEVAEPSVRQTVAILRGLQ
notes: Immobilised on streptavidin biosensors through the biotin; source: synthetic peptide (AAPPTec LLC)
Kd [1]: 14 ± 1.7 µM

B2: Hsp104ND1, N-terminal fragment of Saccharomyces cerevisiae Hsp104 (residues 1-360) (domain or fragment, S. cerevisiae, UniProt P31539 1-360, looked up)
chain: MNDQTQFTERALTILTLAQKLASDHQHPQLQPIHILAAFIETPEDGSVPYLQNLIEKGRYDYDLFKKVVNRNLVRIPQQQPAPAEITPSYALGKVLQDAAKIQKQQKDSFIAQDHILFALFNDSSIQQIFKEAQVDIEAIKQQALELRGNTRIDSRGADTNTPLEYLSKYAIDMTEQARQGKLDPVIGREEEIRSTIRVLARRIKSNPCLIGEPGIGKTAIIEGVAQRIIDDDVPTILQGAKLFSLDLAALTAGAKYKGDFEERFKGVLKEIEESKTLIVLFIDEIHMLMGNGKDDAANILKPALSRGQLKVIGATTNNEYRSIVEKDGAFERRFQKIEVAEPSVRQTVAILRGLQPKYE
notes: Hsp104, S. cerevisiae, residues 1-360: N domain and extended D1-large domain with the first helix of the D1-small domain (C1 helix, residues 343-351); residues 4 to 352 traced; The general purification text describes Ni-NTA and TEV cleavage of an N-terminal His6 tag; also called N-terminal fragment of yeast Hsp104
binding result [2]: binds
